Measured values reported in US20230355761A1 (CRISPR THERAPEUTICS, published 2023).

Target: T1, CD70 on human cancer cell lines (A498, ACHN, SK-OV-3, Hs 766T, NCI-H1975, Calu-1, DU 145, SNU-1, MM.1S, HuT78) (human, UniProt P32970 1-193)
T1 sequence (looked up): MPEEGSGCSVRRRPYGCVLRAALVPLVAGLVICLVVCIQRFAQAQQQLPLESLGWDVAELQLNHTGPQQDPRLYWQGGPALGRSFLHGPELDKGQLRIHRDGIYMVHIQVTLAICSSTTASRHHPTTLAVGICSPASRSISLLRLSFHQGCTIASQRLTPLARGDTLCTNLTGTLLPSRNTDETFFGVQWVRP
Assay: cell-based or functional assay

B1: anti-CD70 CAR (CD70B scFv with 41BB), as expressed on the surface of gene-edited human T cells (CTX130; TRAC-/β2M-/CD70-/anti-CD70 CAR+ T cells) (other)
chain: QVQLVQSGAEVKKPGASVKVSCKASGYTFTNYGMNWVRQAPGQGLKWMGWINTYTGEPTYADAFKGRVTMTRDTSISTAYMELSRLRSDDTAVYYCARDYGDYGMDYWGQGTTVTVSSGGGGSGGGGSGGGGSGDIVMTQSPDSLAVSLGERATINCRASKSVSTSGYSFMHWYQQKPGQPPKLLIYLASNLESGVPDRFSGSGSGTDFTLTISSLQAEDVAVYYCQHSREVPWTFGQGTKVEIKSAAAFVPVFLPAKPTTTPAPRPPTPAPTIASQPLSLRPEACRPAAGGAVHTRGLDFACDIYIWAPLAGTCGVLLLSLVITLYCNHRNRKRGRKKLLYIFKQPFMRPVQTTQEEDGCSCRFPEEEEGGCELRVKFSRSADAPAYQQGQNQLYNELNLGRREEYDVLDKRRGRDPEMGGKPRRKNPQEGLYNELQKDKMAEAYSEIGMKGERRRGKGHDGLYQGLSTATKDTYDALHMQALPPR
  cell kill of A498, ACHN, SK-OV-3 and Hs-766T cells by 3X KO CD70 CAR+ T cells, flow cytometry, 24 h, 1:1 effector:target cell ratio: > 50%
  cell kill of A498, ACHN, SK-OV-3 and Hs-766T cells by 3X KO CD70 CAR+ T cells, flow cytometry, 24 h, 4:1 effector:target cell ratio: > 60%
  cell kill of NCI-H1975, Calu-1 and DU 145 cells (medium to low CD70 expression) by 3X KO CD70 CAR+ T cells, flow cytometry, 24 h, 4:1 effector:target cell ratio: > 30%
  cell kill of SKOV-3, Hs-766T and NCI-H1975 cells by 3X KO CD70 CAR+ T cells, flow cytometry, 96 h, 1:1 effector:target cell ratio: > 80%
  cell lysis of CD70+ A498 cells by TRAC-/β2M-/CD70-/anti-CD70 CAR+ T cells, Cell titer-Glo, 24 h, T cell:A498 ratios 1:1 and 0.5:1: > 90%
  cell lysis of CD70+ A498 cells by TRAC-/β2M-/anti-CD70 CAR+ T cells (2X KO), Cell titer-Glo, 24 h, T cell:A498 ratios 1:1 and 0.5:1: < 90%
